Reference: patent publication US20210070882A1

Molecular target: human CD19 (human) (UniProt P15391)
Test: cell-based or functional assay

Chain of human CD19 (human) (P15391 20-556): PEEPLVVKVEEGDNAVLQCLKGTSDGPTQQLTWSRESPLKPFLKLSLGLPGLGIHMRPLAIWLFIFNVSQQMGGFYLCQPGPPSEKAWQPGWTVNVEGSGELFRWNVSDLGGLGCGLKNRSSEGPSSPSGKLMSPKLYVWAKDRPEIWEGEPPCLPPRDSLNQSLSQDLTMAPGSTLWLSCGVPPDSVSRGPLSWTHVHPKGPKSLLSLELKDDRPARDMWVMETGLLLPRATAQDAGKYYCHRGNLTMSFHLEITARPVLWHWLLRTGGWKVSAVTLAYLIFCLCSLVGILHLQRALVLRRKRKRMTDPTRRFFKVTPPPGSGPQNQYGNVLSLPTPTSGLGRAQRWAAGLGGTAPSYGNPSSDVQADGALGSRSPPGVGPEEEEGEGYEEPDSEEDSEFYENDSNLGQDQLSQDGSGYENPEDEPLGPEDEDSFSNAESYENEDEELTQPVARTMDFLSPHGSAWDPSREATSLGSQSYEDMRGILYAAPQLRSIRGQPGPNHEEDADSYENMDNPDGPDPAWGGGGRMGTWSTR

How did the T cell activation EC50 upon Z-138 lysis, CD25/CD4 turn out when Blinatumomab (bispecific antibody) was run?
The T cell activation EC50 upon Z-138 lysis, CD25/CD4 was 3.7 pM.

And the T cell activation EC50 upon Z-138 lysis, CD25/CD8?
The T cell activation EC50 upon Z-138 lysis, CD25/CD8 was 4.5 pM.

What about the T cell activation EC50 upon Z-138 lysis, CD69/CD4 of the same substance?
Its T cell activation EC50 upon Z-138 lysis, CD69/CD4 is 2.3 pM.

And the T cell activation EC50 upon Z-138 lysis, CD69/CD8?
The T cell activation EC50 upon Z-138 lysis, CD69/CD8 was 2.4 pM.

What about the Tumor cell lysis Z-138 cells (21 h), EC50 of the same substance?
Its Tumor cell lysis Z-138 cells (21 h), EC50 is 0.26 ng/mL.

What about the Tumor cell lysis Z-138 cells (21 h), EC50 (pM) of the same substance?
The Tumor cell lysis Z-138 cells (21 h), EC50 (pM) was 4.8 pM.
